Reference: US20180243408A1

Columns and labels:
[1] = target: component of tight junctions expressed by L-cells; experiment: flow cytometry on L cells, 20 µg Arah2-pσ1, detected with anti-pσ1 rabbit serum and FITC-labeled anti-rabbit
Arah2-pσ1 fusion protein [2] = experiment: flow cytometry; control serum in place of anti-pσ1 serum on L cells stained with Arah2-pσ1, FITC-labeled anti-rabbit
Arah2-pσ1 fusion protein [3] = experiment: flow cytometry; control serum in place of anti-pσ1 serum on HeLa cells stained with Arah2-pσ1, FITC-labeled anti-rabbit

Substance	MFI [1] [MFI]	MFI (Arah2-pσ1 fusion protein [2]) [MFI]	MFI (Arah2-pσ1 fusion protein [3]) [MFI]
Arah2-pσ1 fusion protein	1880		
normal rabbit serum		32	26
